{"source": "paper PMC2734106", "origin": "cited, not measured here", "key": {"ubiquitin (Homo sapiens)": {"biological_target": "ubiquitin (Homo sapiens) (UniProt P0CG47)"}, "[1]": {"biological_target": "K48-linked tetraubiquitin (Homo sapiens) (UniProt P0CG47)"}}, "data": [{"substance": "USP5 (from UniProt P45974)", "values": [{"measurement": "Kd", "setting": "ubiquitin (Homo sapiens)", "value": 50, "unit": "nM"}, {"measurement": "Kd", "setting": "[1]", "value": "< 1", "unit": "nM"}]}]}
